Laboratory results as given in patent EP4678181A1.

How the values were obtained:
[1] = biological target: biotin-labeled human interleukin-2 receptor alpha subunit (ACROBiosystems) (human) (UniProt P01589); experiment: SPR (Biacore T200), biotin-labeled receptor subunit on streptavidin chip; relative to aldesleukin
[2] = biological target: T1, biotin-labeled human interleukin-2 receptor beta subunit (ACROBiosystems) (human) (UniProt P14784); experiment: as above
T1 sequence (biotin-labeled (site not stated), looked up): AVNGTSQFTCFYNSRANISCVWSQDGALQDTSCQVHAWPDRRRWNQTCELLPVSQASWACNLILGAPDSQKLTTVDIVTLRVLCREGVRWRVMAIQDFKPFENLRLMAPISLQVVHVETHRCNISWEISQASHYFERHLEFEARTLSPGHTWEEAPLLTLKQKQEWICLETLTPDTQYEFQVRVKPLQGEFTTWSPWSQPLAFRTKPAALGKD

[3] = biological target: interleukin-2 alpha receptor (SYMANSIS, #4102H) to which a human immunoglobulin Fc region was linked (UniProt P01589); experiment: SPR (Biacore T200), receptor-Fc captured by anti-human Ig antibody on CM5 chip; relative to analog 1 (aldesleukin)
interleukin-2 alpha receptor (SYMANSIS, #4102H) to which a human immunoglobulin Fc region was linked, sequence (P01589 22-213 limits assumed): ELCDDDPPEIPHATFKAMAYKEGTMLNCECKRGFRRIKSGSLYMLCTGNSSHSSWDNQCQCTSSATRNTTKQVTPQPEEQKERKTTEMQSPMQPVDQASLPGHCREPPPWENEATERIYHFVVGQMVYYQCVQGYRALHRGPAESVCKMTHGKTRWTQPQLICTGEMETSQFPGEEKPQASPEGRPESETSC

[4] = biological target: T2, interleukin-2 beta receptor (SYMANSIS, #4122H) to which a human immunoglobulin Fc region was linked (UniProt P14784); experiment: as above
T2 sequence (looked up): T1 sequence (biotin-labeled (site not stated), looked up)

biotin-labeled human interleukin-2 receptor alpha subunit (ACROBiosystems) (human), sequence (P01589 22-213): as the sequence (P01589 22-213 limits assumed) above

Relative binding affinity (%) [1]: 100%
Relative binding affinity (%) [2]: 100%
Relative binding affinity (%) [3]: 100%
Relative binding affinity (%) [4]: 100%
Substance: interleukin-2 analog 1 (aldesleukin) (from UniProt P60568 22-153) (ligand)
